The text below walks through data of the supplement of paper PMC6755084.

The data set has as its system F1*sub RNA substrate (template-directed ligation). The data set can be described thus: fraction ligated after 30 min (ligated reads / total reads); higher = more ligase activity; sequences stand for … in GAGACCGCAACTGAAAAGTTGT…AGTTCTGCACGTAGAAGCAAAAGGC
To be noted: 42 °C. An outline of the steps: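 Ligase ribozyme variants were made from oligo-pool templates by PCR amplification, T7 transcription and gel purification. After gel separation, ligated and unligated bands were reverse transcribed with barcoded primers and sequenced on a MiSeq, with core bases filtered at quality ≥20. The fraction ligated for each variant was the number of ligated reads divided by total reads.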
In turn, “TATCACTTGCGTAAGACATTTGATGGGTTGA [3d1675]” returned a fraction ligated of 0.574.

In turn, “TATCACTTGCGTAAGACATTTGGAGGGTTGA [3d1677]” had a fraction ligated of 0.0596.

As to “TATCACTTGCGTAAGACATTTGGATGGGTTA [3d1679]”, the fraction ligated stood at 0.808. The sequence “TATCACTTGCGTAAGACATTTGGATGGGTTG [3d1680]” yielded a fraction ligated of 0.84. The sequence “TATCACTTGCGTAAGACATTTGGATGGTTGA [3d1678]” came in with a fraction ligated of 0.16. As to “TATCACTTGCGTAAGACATTTGGTGGGTTGA [3d1676]”, the fraction ligated was 0.0926. The value for “TATCACTTGCGTAAGACCTTGGATGGGTTGA [3d1667]” was 0.797; that for “TATCACTTGCGTAAGACCTTTGATGGGTTGA [3d1668]” was 0.789; that for “TATCACTTGCGTAAGACCTTTGGAGGGTTGA [3d1670]” was 0.0866. As for “TATCACTTGCGTAAGACCTTTGGATGGGTTA [3d1672]”, the figure is 0.785; as for “TATCACTTGCGTAAGACCTTTGGATGGGTTG [3d1673]”, 0.81. As for “TATCACTTGCGTAAGACCTTTGGATGGTTGA [3d1671]”, the figure is 0.176; as for “TATCACTTGCGTAAGACCTTTGGTGGGTTGA [3d1669]”, 0.137.

Consider “TATCACTTGCGTAAGACTTTGGATGGGTTGA [3d1649]”, for which the fraction ligated is 0.849.

In turn, “TATCACTTGCGTAAGCACTTGGATGGGTTGA [3d1652]” had a fraction ligated of 0.792.

The sequence “TATCACTTGCGTAAGCACTTTGATGGGTTGA [3d1653]” registered a fraction ligated of 0.802.

For the sequence “TATCACTTGCGTAAGCACTTTGGAGGGTTGA [3d1655]”, the fraction ligated was found to be 0.178. As for “TATCACTTGCGTAAGCACTTTGGATGGGTTA [3d1657]”, the figure is 0.812; as for “TATCACTTGCGTAAGCACTTTGGATGGGTTG [3d1658]”, 0.832. “TATCACTTGCGTAAGCACTTTGGATGGTTGA [3d1656]” had a fraction ligated of 0.705.

Sequence “TATCACTTGCGTAAGCACTTTGGTGGGTTGA [3d1654]” showed a fraction ligated of 0.366.

The sequence “TATCACTTGCGTAAGCATTTGGATGGGTTGA [3d1651]” had a fraction ligated of 0.83. The sequence “TATCACTTGCGTAAGCCTTTGGATGGGTTGA [3d1650]” displayed a fraction ligated of 0.806. The value for “TATCACTTGCGTAGAACTTTGGATGGGTTGA [3d1629]” was 0.862. As for “TATCACTTGCGTAGACACTTGGATGGGTTGA [3d1632]”, the figure is 0.779; as for “TATCACTTGCGTAGACACTTTGATGGGTTGA [3d1633]”, 0.803. For the sequence “TATCACTTGCGTAGACACTTTGGAGGGTTGA [3d1635]”, the fraction ligated stood at 0.105.

Sequence “TATCACTTGCGTAGACACTTTGGATGGGTTA [3d1637]” yielded a fraction ligated of 0.781. For “TATCACTTGCGTAGACACTTTGGATGGGTTG [3d1638]”, the fraction ligated was 0.816. In turn, “TATCACTTGCGTAGACACTTTGGATGGGTTGA [2d166]” returned a fraction ligated of 0.835. The value for “TATCACTTGCGTAGACACTTTGGATGGTTGA [3d1636]” was 0.296; that for “TATCACTTGCGTAGACACTTTGGTGGGTTGA [3d1634]” was 0.0947; that for “TATCACTTGCGTAGACATTTGGATGGGTTGA [3d1631]” was 0.821. On to “TATCACTTGCGTAGACCTTTGGATGGGTTGA [3d1630]”, for which the fraction ligated is 0.817.

On to “TATCACTTGCGTAGCACTTTGGATGGGTTGA [3d1628]”, for which the fraction ligated was 0.859. Sequence “TATCACTTGCGTGACACTTTGGATGGGTTGA [3d1626]” showed a fraction ligated of 0.829. With “TATCACTTGCTAAACACTTTGGATGGGTTGA [3d1601]”, the fraction ligated came to 0.777.

The sequence “TATCACTTGCTAAGAACTTTGGATGGGTTGA [3d1603]” displayed a fraction ligated of 0.831. As for “TATCACTTGCTAAGACACTTGGATGGGTTGA [3d1606]”, the figure is 0.782. The value for “TATCACTTGCTAAGACACTTTGATGGGTTGA [3d1607]” was 0.738. Sequence “TATCACTTGCTAAGACACTTTGGAGGGTTGA [3d1609]” gave a fraction ligated of 0.13. In the case of “TATCACTTGCTAAGACACTTTGGATGGGTTA [3d1611]”, the fraction ligated was 0.773. Take “TATCACTTGCTAAGACACTTTGGATGGGTTG [3d1612]”: the fraction ligated stood at 0.8. As for “TATCACTTGCTAAGACACTTTGGATGGGTTGA [2d164]”, the figure is 0.822; as for “TATCACTTGCTAAGACACTTTGGATGGTTGA [3d1610]”, 0.351; as for “TATCACTTGCTAAGACACTTTGGTGGGTTGA [3d1608]”, 0.11.

Consider “TATCACTTGCTAAGACATTTGGATGGGTTGA [3d1605]”, for which the fraction ligated was 0.849.

“TATCACTTGCTAAGACCTTTGGATGGGTTGA [3d1604]” had a fraction ligated of 0.811. “TATCACTTGCTAAGCACTTTGGATGGGTTGA [3d1602]”: the fraction ligated was 0.834. Consider “TATCACTTGCTAGACACTTTGGATGGGTTGA [3d1600]”, for which the fraction ligated is 0.805. In turn, “TATCACTTGGAAGACACTTTGGATGGGTTGA [3d1585]” yielded a fraction ligated of 0.823. “TATCACTTGGTAAACACTTTGGATGGGTTGA [3d1587]” registered a fraction ligated of 0.826.

“TATCACTTGGTAAGAACTTTGGATGGGTTGA [3d1589]”: the fraction ligated amounted to 0.804.

In the case of “TATCACTTGGTAAGACACTTGGATGGGTTGA [3d1592]”, the fraction ligated worked out at 0.795.

For “TATCACTTGGTAAGACACTTTGATGGGTTGA [3d1593]”, the fraction ligated was 0.776. “TATCACTTGGTAAGACACTTTGGAGGGTTGA [3d1595]” yielded a fraction ligated of 0.0523.

Consider “TATCACTTGGTAAGACACTTTGGATGGGTTA [3d1597]”, for which the fraction ligated was 0.733. As for “TATCACTTGGTAAGACACTTTGGATGGGTTG [3d1598]”, the figure is 0.809; as for “TATCACTTGGTAAGACACTTTGGATGGGTTGA [2d163]”, 0.813.

In turn, “TATCACTTGGTAAGACACTTTGGATGGTTGA [3d1596]” registered a fraction ligated of 0.134. As for “TATCACTTGGTAAGACACTTTGGTGGGTTGA [3d1594]”, the figure is 0.047; as for “TATCACTTGGTAAGACATTTGGATGGGTTGA [3d1591]”, 0.832. As for “TATCACTTGGTAAGACCTTTGGATGGGTTGA [3d1590]”, the figure is 0.765; as for “TATCACTTGGTAAGCACTTTGGATGGGTTGA [3d1588]”, 0.818.

“TATCACTTGGTAGACACTTTGGATGGGTTGA [3d1586]” yielded a fraction ligated of 0.829. “TATCACTTGTAAGACACTTTGGATGGGTTGA [3d1311]” had a fraction ligated of 0.837. The value for “TATCACTTGTCAAACACTTTGGATGGGTTGA [3d1811]” was 0.802; that for “TATCACTTGTCAAGAACTTTGGATGGGTTGA [3d1813]” was 0.839.

In turn, “TATCACTTGTCAAGACACTTGGATGGGTTGA [3d1816]” came in with a fraction ligated of 0.76. As for “TATCACTTGTCAAGACACTTTGATGGGTTGA [3d1817]”, the figure is 0.715; as for “TATCACTTGTCAAGACACTTTGGAGGGTTGA [3d1819]”, 0.138; as for “TATCACTTGTCAAGACACTTTGGATGGGTTA [3d1821]”, 0.781. Regarding “TATCACTTGTCAAGACACTTTGGATGGGTTG [3d1822]”, the fraction ligated worked out at 0.777. As for “TATCACTTGTCAAGACACTTTGGATGGGTTGA [2d194]”, the figure is 0.809; as for “TATCACTTGTCAAGACACTTTGGATGGTTGA [3d1820]”, 0.288; as for “TATCACTTGTCAAGACACTTTGGTGGGTTGA [3d1818]”, 0.128.

Sequence “TATCACTTGTCAAGACATTTGGATGGGTTGA [3d1815]” came in with a fraction ligated of 0.829.

Take “TATCACTTGTCAAGACCTTTGGATGGGTTGA [3d1814]”: the fraction ligated was 0.762. As for “TATCACTTGTCAAGCACTTTGGATGGGTTGA [3d1812]”, the figure is 0.785. For “TATCACTTGTCAGACACTTTGGATGGGTTGA [3d1810]”, the fraction ligated was 0.824. The value for “TATCACTTGTCGAAAACTTTGGATGGGTTGA [3d1915]” was 0.798. As for “TATCACTTGTCGAAACACTTGGATGGGTTGA [3d1918]”, the figure is 0.776. As for “TATCACTTGTCGAAACACTTTGATGGGTTGA [3d1919]”, the figure is 0.721; as for “TATCACTTGTCGAAACACTTTGGAGGGTTGA [3d1921]”, 0.0563; as for “TATCACTTGTCGAAACACTTTGGATGGGTTA [3d1923]”, 0.756. Turning to “TATCACTTGTCGAAACACTTTGGATGGGTTG [3d1924]”, the fraction ligated is 0.817. As for “TATCACTTGTCGAAACACTTTGGATGGTTGA [3d1922]”, the figure is 0.0984. The value for “TATCACTTGTCGAAACACTTTGGTGGGTTGA [3d1920]” was 0.0386. “TATCACTTGTCGAAACATTTGGATGGGTTGA [3d1917]”: the fraction ligated turned out to be 0.821. Consider “TATCACTTGTCGAAACCTTTGGATGGGTTGA [3d1916]”, for which the fraction ligated is 0.78. The value for “TATCACTTGTCGAACACTTTGGATGGGTTGA [3d1903]” was 0.802; that for “TATCACTTGTCGAAGAACTTGGATGGGTTGA [3d1936]” was 0.794; that for “TATCACTTGTCGAAGAACTTTGATGGGTTGA [3d1937]” was 0.796. “TATCACTTGTCGAAGAACTTTGGAGGGTTGA [3d1939]” yielded a fraction ligated of 0.111. As for “TATCACTTGTCGAAGAACTTTGGATGGGTTA [3d1941]”, the figure is 0.779. Sequence “TATCACTTGTCGAAGAACTTTGGATGGGTTG [3d1942]” showed a fraction ligated of 0.798. The value for “TATCACTTGTCGAAGAACTTTGGATGGTTGA [3d1940]” was 0.187.
